Experiments:
[1] = target: cysteine desulfurase NFS1 (subunit of the (NIA)2 subcomplex) (human)
[2] = target: iron-sulfur scaffold protein ISCU2, iron-loaded (human) (UniProt Q9H1K1)
[3] = target: cysteine desulfurase NFS1 (subunit of the (NIA)2 subcomplex) (human); remark: listed apart in the source

UniProt Q9H1K1, sequence (Q9H1K1 35-167): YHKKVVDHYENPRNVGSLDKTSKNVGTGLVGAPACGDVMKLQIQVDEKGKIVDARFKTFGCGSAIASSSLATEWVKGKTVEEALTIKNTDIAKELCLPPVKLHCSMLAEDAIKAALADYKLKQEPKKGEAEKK

| initial rate of [2Fe-2S] cluster synthesis (CD) at 5 µM FDX2 variant, against wild-type FDX2 [1] [fold higher] | Substance | other results |
| --- | --- | --- |
| < 4 | FDX2 truncation variant lacking 5 C-terminal residues (ΔC5) (from UniProt Q6P4F2 53-181) (domain or fragment) |  |
| < 4 | FDX2 truncation variant lacking 10 C-terminal residues (ΔC10) (from UniProt Q6P4F2 53-176) (domain or fragment) |  |
|  | FDX2-CL variant (cluster-binding loop residues 109EASL112 replaced with GGSC) (from UniProt Q6P4F2 66-183) (natural protein) | initial rates of [2Fe-2S] cluster synthesis (CD) against the concentration of the FDX2 variant, maximum at 1.5 µM, against wild-type FDX2 [2]: 2 fold slower |
|  | FDX2-DA variant (Asp137-Asp138 exchanged to Ala) (from UniProt Q6P4F2 66-183) (natural protein) | initial rate of [2Fe-2S] cluster synthesis on ISCU2 (CD), dithionite-reduced ferredoxin, against dithionite-reduced wild-type FDX2 [3]: 4 fold slower |
